Measurements as given in patent US20250277048A1.

Molecular target: human CD40 (hCD40) expressed on cells (human) (UniProt P25942)
Test: cell-based or functional assay

human CD40 (hCD40) expressed on cells (human), sequence (P25942 21-277): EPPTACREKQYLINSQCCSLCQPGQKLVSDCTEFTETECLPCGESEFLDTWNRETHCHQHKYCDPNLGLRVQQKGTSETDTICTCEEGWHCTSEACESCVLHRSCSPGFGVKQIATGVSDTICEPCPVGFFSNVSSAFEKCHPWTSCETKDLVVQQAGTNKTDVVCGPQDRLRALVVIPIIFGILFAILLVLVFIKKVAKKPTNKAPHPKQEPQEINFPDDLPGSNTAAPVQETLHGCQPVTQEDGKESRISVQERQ

For “human CD40L (soluble, used in the cell assays) (from UniProt P29965 113-261) (ligand)”, the EC50 of activation, Raji/NFkB-luc was 0.691 nM, the EC50 of activation, Ramos.2G6.4C10/NFkB-luc was 0.436 nM and the EC50 of activation, THP-1/NFkB-luc was 1.47 nM.
